The text below walks through data of the supplement of paper PMC9170038.

This series has as its system MS2 coat protein. The series can be described thus: apparent KD of MS2 coat protein; higher = weaker reporter binding. Conditions: Eterna round: R107. As to the method: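 RNA-MaP round R107: designed RNA switches with theophylline, tryptophan, arginine or FMN aptamers are transcribed on-chip within common flanks. They are titrated with SNAP-549-labelled MS2 coat protein in RNA-MaP buffer (100 mM Tris pH 7.5, 80 mM KCl, 4 mM MgCl2), without ligand or with the indicated ligand. Median apparent KD per design.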

The mark [1] stands for this setting: input ligand: theophylline 20 uM.
The mark [2] stands for this setting: input ligand: tryptophan 2.4 mM.
Where [3] appears, read: input ligand: theophylline 2 mM.

Regarding “AAUUUGUCGGGUGAUACCAGCCUCGGCGCAUCUCGCGCUGAACAUGAGGAUCACCCAUGUGGCCCUUGGCAGCACAUGACAAAUC [Veerdira]”, the “apparent KD of MS2 coat protein” value came out at 153 nM (input ligand: arginine 13.2 mM), 587 nM under setting [1] and 757 nM under setting [2].
Take “ACAACAUGAGGCGAUACCAGAGGCAACAUGAGGAUCACCCAUGUUCACCCAUGUGAUCACCUCCCUUGGCAGCGCACAUGAGGAU [Same State - Theophylline B #1]”: the “apparent KD of MS2 coat protein” value came out at 13.7 nM (input ligand: arginine 13.2 mM), 17 nM under setting [1] and 12.3 nM under setting [2].
The corresponding values for “ACAUCCAGAUUAAUCGUGGGCAUACUCGAUACCAGUAUUUUAAUCUACCCUUGGCAGCGACAUGAGGAUCACCCAUGUGCGAUGA [XTheo A #11]” are 11.7 nM, 13.9 nM and 12.4 nM.
As to “ACAUGAGGAUCACCCAUGUACAUGAGGGAAGGAGCGGUACAUGUGCCAGGUAGGUCGCCCAACAGCAUCAGCCAUGUACAACAGG [zqwmullin]”, the “apparent KD of MS2 coat protein” value (input ligand: arginine 13.2 mM) turned out to be 41.3 nM; the “apparent KD of MS2 coat protein” value (input ligand: none) was 162 nM; the “apparent KD of MS2 coat protein” value under setting [1] came to 72.6 nM; the “apparent KD of MS2 coat protein” value under setting [3] came out at 79.2 nM; the “apparent KD of MS2 coat protein” value under setting [2] amounted to 61 nM.
“ACAUGAGGAUCACCCAUGUAGCCUAGGGAAGGAGCGUCGUAAGAGACAGGUAGGUCGCCCGCAUGUGAGUCAUCCAUGACGAGGG [#18 Same State - Arginine A]”: the “apparent KD of MS2 coat protein” value reads like this: (input ligand: arginine 13.2 mM) 25.7 nM; (input ligand: none) 25.9 nM; under setting [1], 30.1 nM; under setting [3], 23.6 nM; under setting [2], 21.1 nM.
For “ACAUGAGGAUCACCCAUGUGUCCUCGAAAACGAGGACCGGUACGGCCGCCACUCGAAAUAAGCUGUUGACGAAAAGUCAGCAGCA [Mat - Exclusion - Trytophan A - D21]” the same measures were 74.5 nM, 126 nM, 173 nM, 152 nM and 316 nM.
As to “ACAUGAGGAUCACCCAUGUGUGUAAGUUCUCGAGGACCGGUACGGCCGCCACUCGAACGAGUGUAACGUUAUACUUAGUAUAAUG [SS Trp A s4]”, the “apparent KD of MS2 coat protein” value runs as follows: (input ligand: arginine 13.2 mM) 22.6 nM; (input ligand: none) 11.4 nM; under setting [1], 21.3 nM; under setting [3], 15.2 nM; under setting [2], 11.4 nM.
In the case of “ACAUGAGGAUCACCCAUGUUAAACAGGGUGCGAGGACCGGUACGGCCGCCACUCGGACAUUAUUACGAGUGAAUGGUAACGAUGU [#13 Exclusion Tryptophan A]”, the “apparent KD of MS2 coat protein” value is, setting by setting: (input ligand: arginine 13.2 mM) 21.1 nM; under setting [1], 33.6 nM; under setting [3], 26.5 nM.
Regarding “ACAUGAGGAUCACCCAUGUUCCUCAUUGAUACCAGUGAAUUUAGACGCCCUUGGCAGCGAGUUUUUUUAUAAGUUUUUUUUUUUU [6.J]”, the “apparent KD of MS2 coat protein” value reads like this: (input ligand: arginine 13.2 mM) 276 nM; under setting [1], 913 nM; under setting [2], 874 nM.
On to “ACAUGAGGAUCACCCAUGUUGCUGACAGAAGGAGCGUGAUUAAGCACAGGUAGGUCGCUGUUGGUAUCGAGCGUUAGCUCGAUAC [SSArg A #8]”, for which the “apparent KD of MS2 coat protein” value is 34.6 nM (input ligand: arginine 13.2 mM); 32 nM (input ligand: none); 41.7 nM under setting [1]; 33.7 nM under setting [3]; 50 nM under setting [2].
On to “ACAUGUUGGUGGUACCAACGAAGGCGGAAACGAGGACCGGUACGGCCGCCACUCGGCGACAUGAGGAUCACCCAUGUGGUUAAAA [Exclusion - Tryptophan A (Freestyle 3)]”, for which the “apparent KD of MS2 coat protein” value runs as follows: (input ligand: none) 398 nM; under setting [1], 134 nM; under setting [3], 95.7 nM; under setting [2], 70 nM.
Take “ACAUUUAACUGAAGGAGCGUGAUAUUUACAUGAGGAUCACCCAUGUCUUUCAUGAUAUAUUCACAGGUAGGUCGCAGACUAAUGA [JR_ExcArginiB_Sub006]”: the “apparent KD of MS2 coat protein” value reads like this: (input ligand: arginine 13.2 mM) 118 nM; (input ligand: none) 125 nM; under setting [1], 160 nM; under setting [3], 306 nM; under setting [2], 184 nM.
Turning to “ACCUGCGUUUGAUUCUAUCAGACGCAGGUUCGAGGACCGGUACGGCCGCCACUCGGACAUGAGGAUCACCCAUGUUUGACAUGGG [#04 Exclusion Tryptophan A]”, the “apparent KD of MS2 coat protein” value is, setting by setting: (input ligand: arginine 13.2 mM) 134 nM; under setting [1], 281 nM; under setting [3], 1010 nM.
For “ACGACGCAUAGUGAUACCAGUAGAACAUGAGGAUCACCCAUGUCUGUGGCGCACCACCUCUGCCCUUGGCAGCACUAUGCGUCAG [SSTheo B #9]”, the “apparent KD of MS2 coat protein” value is 12.6 nM (input ligand: arginine 13.2 mM), 17.4 nM under setting [1] and 14.1 nM under setting [2].
For “ACGAUAGCACAAGAGGAUCACCCUUGUGAUACCAGCCUGGAAACAGGCCCUUGGCAGCACACAAAUAAAUUGUAACUAUCGAAUA [TheoAX5 #MicroSwitchBubble #AlternativeMS2]”, the “apparent KD of MS2 coat protein” value runs as follows: (input ligand: arginine 13.2 mM) 22.5 nM; (input ligand: none) 23.6 nM; under setting [1], 43.9 nM; under setting [3], 112 nM; under setting [2], 29.3 nM.
Turning to “ACGAUAGGACCUGAGGAACACCCAGGUGAUACCAGCCUGGAAACAGGCCCUUGGCAGCACCAAUACUCCAAUAACCUAUCGAAUA [TheoAX 12 #MicroSwitchBubble #AlternativeMS2]”, the “apparent KD of MS2 coat protein” value was 141 nM (input ligand: arginine 13.2 mM); 547 nM (input ligand: none); 521 nM under setting [1]; 366 nM under setting [3]; 518 nM under setting [2].
The corresponding values for “ACGCUGAUUGAUUACAAUCAGCGAAAAGAUACCAGUGGGUAAUCCCACCCUUGGCAGCUUAAAUAUGAGGAUCACCCAUAUGGUA [TheoAS 18 #MS2Right #BothOrNeither #AlternativeMS2]” are 54.6 nM, 108 nM, 155 nM, 412 nM and 86.1 nM.
“ACUAACUAUAGUGAUACCAGACGUACAUGAGGAUCACCCAUGUUACAUUCUUGGUUAAAAGUCCCUUGGCAGCACGAUAAGUUCG [JR_Nu_ExcTheophyB_Sub025]”: the “apparent KD of MS2 coat protein” value is 9.7 nM (input ligand: arginine 13.2 mM), 11.2 nM under setting [1] and 10 nM under setting [2].
In the case of “AGACAUGAGGAUCACCCAUGUAGUACGGAUACCAGAUCCAGAUGUAUCCCUUGGCAGCUGUGGUACAGCGUUACAUCGCUCGUAG [Exclusion - Theophylline A (Freestyle 21)]”, the “apparent KD of MS2 coat protein” value by setting is: (input ligand: arginine 13.2 mM) 10.4 nM; (input ligand: none) 13.3 nM; under setting [1], 18.4 nM; under setting [3], 16.6 nM; under setting [2], 16.2 nM.
Take “AGAGCAUUGACGGCCGCCACUCAUGUCACAUGAGGAUCACCCAUGUGAUGGGUAAUCGCCCGGUUGAGGACCGGGUCAAUGCUCA [Omei Tryp SS B v3]”: the “apparent KD of MS2 coat protein” value (input ligand: arginine 13.2 mM) is 6.69 nM; the “apparent KD of MS2 coat protein” value (input ligand: none) stood at 6.99 nM; the “apparent KD of MS2 coat protein” value under setting [1] was found to be 16.9 nM; the “apparent KD of MS2 coat protein” value under setting [3] was found to be 8.46 nM; the “apparent KD of MS2 coat protein” value under setting [2] stood at 10.7 nM.
The corresponding values for “AGAGUCAGACAAAAGUCUGGCUCAACCGAAGGAGCGUCCGAAAGGACAGGUAGGUCGCGGUUACCUGAGGAUCACCCGGGUUCCU [ArgAS 9 #OpenEnded #AlternativeMS2]” are 100 nM, 65 nM, 110 nM, 1040 nM and 659 nM.
For “AGAGUCUAGUCGGCCGCCACUCAUGUCCAAAGGACAUGAGGAUCACCCAUGUACCUAAGGUACAUGAGGACCGGGACUGGACUCA [Omei Tryp B SS C v5]” the same measures were 13.1 nM, 24.4 nM, 131 nM, 336 nM and 7.92 nM.
On to “AGAGUUAGACAAAAGUCUAGCUCACCAGAAGGAGCGUCCGAAAGGACAGGUAGGUCGCUGGUACGUGAGGAUCACCCACGUUCCU [ArgAS 18 #OpenEnded #AlternativeMS2]”, for which the “apparent KD of MS2 coat protein” value is, setting by setting: (input ligand: arginine 13.2 mM) 21.6 nM; (input ligand: none) 24.6 nM; under setting [1], 26.3 nM; under setting [3], 28.4 nM; under setting [2], 23.1 nM.
“AGAUAACAUGGUUUAAUAAGAUAAACUGAUACCAGUGUAUAUAAUCACCCUUGGCAGCAGCAACAUGAGGAUCACCCAUGUAAUA [JR_SSTheophyA_Sub014]”: the “apparent KD of MS2 coat protein” value is 14.9 nM (input ligand: arginine 13.2 mM), 19.6 nM under setting [1] and 20.6 nM under setting [2].
Turning to “AGAUGUAGCGGAAGGAGCGUCAUGAGGAUCACCCAUGACUCCCGUUGUGGGAGUUCCUUAGGUCAGGUAGGUCGCCGUUACGUCA [Omei Arg B SS B v5]”, the “apparent KD of MS2 coat protein” value by setting is: (input ligand: arginine 13.2 mM) 91.4 nM; (input ligand: none) 390 nM; under setting [1], 563 nM; under setting [3], 596 nM; under setting [2], 426 nM.
On to “AGCACAUGAGGAUCACCCAUGUGAGGUGAUACCAGUGAGAAGAAGCACCCUUGGCAGCACUUGGGUACAUGAGGAUCACCCAUGU [Exclusion Theophylline A GF9]”, for which the “apparent KD of MS2 coat protein” value is, setting by setting: (input ligand: arginine 13.2 mM) 47.4 nM; under setting [1], 77.8 nM; under setting [2], 54.7 nM.
In the case of “AGCACAUGAGGAUCACCCAUGUGUGGGUACCGAGGACCGGUACGGCCGCCACUCGCAGGACAUGAGGAUCACCCAUGUGCCGCCG [SSTA DOUBLE!!! :-D #7]”, the “apparent KD of MS2 coat protein” value (input ligand: arginine 13.2 mM) amounted to 19.7 nM; the “apparent KD of MS2 coat protein” value (input ligand: none) was found to be 30.5 nM; the “apparent KD of MS2 coat protein” value under setting [1] amounted to 33.2 nM; the “apparent KD of MS2 coat protein” value under setting [3] was found to be 41.2 nM; the “apparent KD of MS2 coat protein” value under setting [2] was found to be 43.4 nM.
In the case of “AGCAUGUUAGCAGAUACCAGACGUUUUAUGAUCCAUGUAACAUGAGGAUCACCCAUGUAAGUCCCUUGGCAGCUGAAAUAAUGCA [JR_SSTheophyB_Sub011]”, the “apparent KD of MS2 coat protein” value reads like this: (input ligand: arginine 13.2 mM) 75.7 nM; under setting [1], 187 nM; under setting [2], 127 nM.
For “AGCAUUGUAACAGAUACCAGACUUUUAAUGCCUCUAAUAACAUGAGGAUCACCCAUGUAUGUCCCUUGGCAGCUGUUAUGAUGCA [JR_ExcTheophyB_Sub008]” the same measures were 68.1 nM, 171 nM and 112 nM.
Regarding “AGCCCUGUACUAGAUACCAGCUACAUGAGGAUCACCCAUGUGCGUCAAGACUGACUGUGUAGCCCUUGGCAGCUGCUCGCAUGUA [Exclusion - Theophylline B (Freestyle 2)]”, the “apparent KD of MS2 coat protein” value was 19.7 nM (input ligand: arginine 13.2 mM), 29.9 nM under setting [1] and 20.9 nM under setting [2].
For “AGCCUAUUACAUGAGGAUCACCCAUGUGAUACCAGUCAGGAAACUGACCCUUGGCAGCGCAUGAGGAUCACCCAUGCGCUAGGCA [Omei Theo A Exc A v5]” the same measures were 9.15 nM, 12.3 nM and 10 nM.
For “AGCGACAUGCGUGAUACCAGCUACAUGAGGAUCACCCAUGUACGUCAGAAAUGACUGUGUAGCCCUUGGCAGCAUAAUGCAUGUC [Exclusion - Theophylline B (Freestyle 19)]” the same measures were 38.3 nM, 60.6 nM and 44 nM.
For “AGCGACAUGCGUGAUACCAGCUACAUGAGGAUCACCCAUGUCAGCAGGAAACUGCUGUGUAGCCCUUGGCAGCACAGUGCAUGUC [Exclusion - Theophylline B (Freestyle 28)]” the same measures were 12.9 nM, 18.1 nM and 13.8 nM.
As to “AGCGCAGGUCCUGAUACCAGUGACAUGAGGAUCACCCAUGUCCGAUGGGCCUGCCUCUGACACCCUUGGCAGCAGGGCUUGUGCU [#14 Exclusion-TheophyllineB]”, the “apparent KD of MS2 coat protein” value turned out to be 20 nM (input ligand: arginine 13.2 mM), 49.8 nM under setting [1] and 21.3 nM under setting [2].
